# Laboratory results published in PMC11722011, “NMR Studies on the Structure of Yeast Sis1 and the Dynamics of Its Interaction with Ssa1-EEVD” (Molecules, 2024).
# Ends that are not written are not given here.
# T1: full-length Sis1 (residues 1–352), Sis1_(1–352) (S. cerevisiae, UniProt P25294 1-352)
# T1 construct: Sis1, class B J-domain protein of S. cerevisiae, residues 1-352 (352 residues long); J-domain 1-72, GF 73-121, GM 122-178, CTDI 179-257, CTDII 258-335, dimerization domain 336-352; 15N- or 2H/15N-labelled; also called 15N-Sis1_(1–352); 2H-15N-Sis1_(1–352)
# T1 sequence (looked up): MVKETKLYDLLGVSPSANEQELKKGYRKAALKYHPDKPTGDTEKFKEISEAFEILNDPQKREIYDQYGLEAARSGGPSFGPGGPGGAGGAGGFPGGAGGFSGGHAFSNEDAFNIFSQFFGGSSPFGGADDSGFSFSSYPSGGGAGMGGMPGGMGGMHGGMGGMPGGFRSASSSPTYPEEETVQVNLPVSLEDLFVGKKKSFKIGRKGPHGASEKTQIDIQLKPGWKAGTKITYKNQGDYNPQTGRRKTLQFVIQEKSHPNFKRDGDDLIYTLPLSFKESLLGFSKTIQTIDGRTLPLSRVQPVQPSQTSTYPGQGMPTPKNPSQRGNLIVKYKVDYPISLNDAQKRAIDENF
# T2: Sis1_(1–81), J-domain of Sis1 (residues 1–81) (S. cerevisiae, UniProt P25294 1-81)
# T2 construct: Sis1, class B J-domain protein of S. cerevisiae, residues 1-81: J-domain (1-72) and part of the GF region (73-81); 15N-labelled for HSQC, 13C/15N-labelled for the structure; also called 15N-Sis1_(1–81)
# T2 sequence (looked up): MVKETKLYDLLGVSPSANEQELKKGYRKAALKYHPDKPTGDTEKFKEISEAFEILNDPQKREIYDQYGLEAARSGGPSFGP
# B1: TEMPO-labeled CGPTIEEVD peptide (TEMPO-EEVD) (peptide)
# peptide: C(4‑maleimide‑TEMPO)GPTIEEVD
# notes: N-terminal cysteine that carries the spin label; also called spin-labeled EEVD; paramagnetic EEVD peptide; source: synthetic peptide (GenOne Biotechnologies), labelled with 4-maleimide-TEMPO, HPLC (C18) purified
# B2: GPTIEEVD peptide (EEVD peptide, C-terminal motif of HSP70/Ssa1) (peptide)
# peptide: GPTIEEVD
# notes: also called Ssa1-EEVD; source: synthetic peptide (GenOne Biotechnologies, Rio de Janeiro)
# Tests used:
# Details in all cases: both partners purified
# [1] = biological target: T1, full-length Sis1 (residues 1–352), …; assay: NMR titration; paramagnetic relaxation enhancement: Sis1(1-352) with TEMPO-labeled EEVD peptide, TROSY spectra, paramagnetic against diamagnetic (reduced with ascorbate) intensity ratio
# [2] = biological target: T2, Sis1_(1–81), J-domain of Sis1 (residues …); assay: NMR titration; paramagnetic relaxation enhancement: 15N-Sis1(1-81) titrated with TEMPO-labeled …, 1H-15N HSQC at 900 MHz; diamagnetic sample after reduction with 3 mM ascorbic acid; intensity ratio Ipara/Idia
# [3] = biological target: T1, full-length Sis1 (residues 1–352), …; assay: NMR titration; 1H-15N TROSY of 0.3 mM 15N-Sis1(1-352) free and with GPTIEEVD (1:4 protein:peptide), CSP; 25 mM Tris-HCl pH 7.5, 200 mM NaCl, 10% D2O, 303 K
Binder,binding result [1],binding result [2],binding result [3]
B1,binds,binds,
B2,,,binds
